Laboratory results reported in patent publication US20160168247A1 (published 2016).

T1: HSC-F (cynomolgus monkey, UniProt Q95LI8 22-171; Q95LI7 23-181)
T1 chain: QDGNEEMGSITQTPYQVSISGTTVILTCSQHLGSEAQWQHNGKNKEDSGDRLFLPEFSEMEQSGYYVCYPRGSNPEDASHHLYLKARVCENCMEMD


How the values were obtained:
HSC-F [1] = biological target: T1, HSC-F; assay: FACS binding; Fig 2B
HSC-F [2] = biological target: T1, HSC-F; assay: FACS binding
HSC-F [3] = biological target: T1, HSC-F; assay: FACS binding; Fig 2A
HSC-F [4] = biological target: T1, HSC-F; assay: FACS binding
HSC-F [5] = biological target: T1, HSC-F; assay: FACS binding; second row printed H4L1; graph legend indicates H4L3
[6] = biological target: T2, human CD3 (on the human T-cell line Jurkat or on human T-cells) (human, UniProt P09693 23-182; P20963 22-164); assay: FACS binding
T2 sequence (chain, as listed by the source, chain 1 of 4): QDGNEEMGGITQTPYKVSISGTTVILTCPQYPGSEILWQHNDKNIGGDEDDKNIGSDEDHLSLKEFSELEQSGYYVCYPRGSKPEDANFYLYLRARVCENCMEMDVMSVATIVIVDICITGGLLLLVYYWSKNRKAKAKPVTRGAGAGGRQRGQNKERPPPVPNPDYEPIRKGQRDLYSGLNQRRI
T2 sequence (chain, as listed by the source, chain 2 of 4): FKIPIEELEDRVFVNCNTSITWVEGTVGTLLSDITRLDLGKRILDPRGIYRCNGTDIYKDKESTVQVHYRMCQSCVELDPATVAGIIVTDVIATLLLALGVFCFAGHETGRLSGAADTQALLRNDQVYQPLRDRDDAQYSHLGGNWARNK
T2 sequence (P09693 23-182, chain 3 of 4): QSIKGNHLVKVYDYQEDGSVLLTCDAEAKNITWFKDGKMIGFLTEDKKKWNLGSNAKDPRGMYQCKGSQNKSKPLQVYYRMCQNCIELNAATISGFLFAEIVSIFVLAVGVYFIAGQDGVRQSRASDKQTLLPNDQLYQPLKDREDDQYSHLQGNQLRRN
T2 sequence (P20963 22-164, chain 4 of 4): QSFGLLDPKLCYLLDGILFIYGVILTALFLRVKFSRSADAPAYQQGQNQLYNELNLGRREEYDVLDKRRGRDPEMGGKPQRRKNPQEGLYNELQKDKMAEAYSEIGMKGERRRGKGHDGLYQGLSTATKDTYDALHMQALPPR

[7] = biological target: T2, human CD3 (on the human T-cell line …); assay: FACS binding; Fig 1A
[8] = biological target: T2, human CD3 (on the human T-cell line …); assay: FACS binding; remark: listed apart in the source
[9] = biological target: T2, human CD3 (on the human T-cell line …); assay: FACS binding; Fig 1B

Binder | EC50 (HSC-F [1]) [µg/mL] | EC50 (HSC-F [3]) [µg/mL] | EC50 (HSC-F [4]) [µg/mL] | EC50 [6] [µg/mL] | EC50 [7] [µg/mL] | EC50 [9] [µg/mL] | also measured
bsIgG1 CD3xHER2-LFLEDA (bispecific antibody, V domains shown) VH 1: EVKLLESGGGLVQPKGSLKLSCAASGFTFNTYAMNWVRQAPGKGLEWVARIRSKYNNYATYYADSVKDRFTISRDDSQSILYLQMNNLKTEDTAMYYCVRHGNFGNSYVSWFAYWGQGTLVTVSA VL 1: QAVVTQESALTTSPGETVTLTCRSSTGAVTTSNYANWVQEKPDHLFTGLIGGTNKRAPGVPARFSGSLIGDKAALTITGAQTEDEAIYFCALWYSNLWVFGGGTKLTVL VH 2: QVQLVQSGAEVKKPGASVKVSCKASGYTFTNYGISWVRQAPGQGLEWMGWLSAYSGNTIYAQKLQGRVTMTTDTSTTTAYMELRSLRSDDTAVYYCARDRIVVRPDYFDYWGQGTLVTVSS VL 2: EIVLTQSPATLSLSPGERATLSCRASQSVSSYLAWYQQKPGQAPRLLIYDASNRATGIPARFSGSGSGTDFTLTISSLEPEDFAVYYCQQRSNWPRTFGQGTKVEIK | 4.46 | – | – | – | – | – | –
IgG1-CD3-LFLEDA (antibody, V domains shown) VH: EVKLLESGGGLVQPKGSLKLSCAASGFTFNTYAMNWVRQAPGKGLEWVARIRSKYNNYATYYADSVKDRFTISRDDSQSILYLQMNNLKTEDTAMYYCVRHGNFGNSYVSWFAYWGQGTLVTVSA VL: QAVVTQESALTTSPGETVTLTCRSSTGAVTTSNYANWVQEKPDHLFTGLIGGTNKRAPGVPARFSGSLIGDKAALTITGAQTEDEAIYFCALWYSNLWVFGGGTKLTVL | 0.47 | 0.3 | 0.06 | – | – | – | EC50 (HSC-F [2]): 0.06 µg/mL
bsIgG1-huCD3-H4L1xHER2-LFLEDA (bispecific antibody, V domains shown) VH 1: EVKLVESGGGLVKPGRSLRLSCAASGFTFNTYAMNWVRQAPGKGLEWVARIRSKYNNYATYYADSVKDRFTISRDDSKSILYLQMNSLKTEDTAMYYCVRHGNFGNSYVSWFAYWGQGTMVTVSS VL 1: QAVVTQEPSFSVSPGGTVTLTCRSSTGAVTTSNYANWVQQTPGQAFRGLIGGTNKRAPGVPARFSGSILGNKAALTITGAQADDESDYYCALWYSNLWVFGGGTKLTVL VH 2: QVQLVQSGAEVKKPGASVKVSCKASGYTFTNYGISWVRQAPGQGLEWMGWLSAYSGNTIYAQKLQGRVTMTTDTSTTTAYMELRSLRSDDTAVYYCARDRIVVRPDYFDYWGQGTLVTVSS VL 2: EIVLTQSPATLSLSPGERATLSCRASQSVSSYLAWYQQKPGQAPRLLIYDASNRATGIPARFSGSGSGTDFTLTISSLEPEDFAVYYCQQRSNWPRTFGQGTKVEIK | – | – | – | – | – | – | EC50 (HSC-F [5]): 0.24 µg/mL
bsIgG1 huCD3-H3L1xHER2-LFLEDA (bispecific antibody, V domains shown) VH 1: EVKLVESGGGLVKPGRSLRLSCAASGFTFNTYAMNWVRQAPGKGLEWVARIRSKYNNYATYYADSVKDRFTISRDDSKSILYLQMNSLKTEDTAMYYCVRHGNFGNSYVSWFAYWGQGTLVTVSS VL 1: not shown VH 2: QVQLVQSGAEVKKPGASVKVSCKASGYTFTNYGISWVRQAPGQGLEWMGWLSAYSGNTIYAQKLQGRVTMTTDTSTTTAYMELRSLRSDDTAVYYCARDRIVVRPDYFDYWGQGTLVTVSS VL 2: EIVLTQSPATLSLSPGERATLSCRASQSVSSYLAWYQQKPGQAPRLLIYDASNRATGIPARFSGSGSGTDFTLTISSLEPEDFAVYYCQQRSNWPRTFGQGTKVEIK | 3.54 | – | – | – | – | – | –
IgG1-CD3-LFLEDA (parental chimeric CD3 antibody with non-activating LFLEDA mutations) (antibody, V domains shown) VH: EVKLLESGGGLVQPKGSLKLSCAASGFTFNTYAMNWVRQAPGKGLEWVARIRSKYNNYATYYADSVKDRFTISRDDSQSILYLQMNNLKTEDTAMYYCVRHGNFGNSYVSWFAYWGQGTLVTVSA VL: QAVVTQESALTTSPGETVTLTCRSSTGAVTTSNYANWVQEKPDHLFTGLIGGTNKRAPGVPARFSGSLIGDKAALTITGAQTEDEAIYFCALWYSNLWVFGGGTKLTVL | – | – | – | 0.27 | 0.08 | 0.07 | EC50 [8]: 0.18 µg/mL
IgG1-huCD3-H3L1-LFLEDA (antibody, V domains shown) VH: EVKLVESGGGLVKPGRSLRLSCAASGFTFNTYAMNWVRQAPGKGLEWVARIRSKYNNYATYYADSVKDRFTISRDDSKSILYLQMNSLKTEDTAMYYCVRHGNFGNSYVSWFAYWGQGTLVTVSS VL: not shown | 0.3 | 0.19 | 0.04 | 0.1 | 0.04 | 0.04 | –
